Data taken from the DeepSol protein solubility set.

Assay: soluble on expression in E. coli; label from the status in PepcDB or PDB records
With “MAHHHHHHMDAKQRESIEELKEQLRGLEEALLIQEKVMQQRNQVILSLSSSIADAENSIGESKEGLKKAEESLEEAIRSNTIAHTERLVLQEEATKYSERDEYLNELSEADAGLNAAEAQVKDLVIQINDLSREPQNKNALQRVTLVRLISMLNDLHASLKHSVQCVPHEEDNRAREVLKAIRELSRERERTFGHCLRKKREIMGVMELKKQRTDEILLESKKNVALLRDIHEKTTLDAVEKIQKERNLLQEELENIKRANQLLQDTLGSTECLCDTKGSDSASTPASISMNVASCQSTDVQKEREHLREYLRHLEEKVTQLRSTTDELRESVGSQMEKNTLKLKDLRHQVRSKQNETHRLENENRKLKSLCDSLASTLGPK” the “soluble on expression in E. coli” value was “not soluble”. For “MAHHHHHHMDAPEWTKDAQSIQGAKDYVRQASIVDFYEMICRNIFTHHPANLTEFCLRIVKDIMNGTEITSAADFQPKRIDDNKYMRDMAMCSFLDGWILELLRERPGTHLERMEFHKRYLEGLQSESDTGK”, the “soluble on expression in E. coli” value was “soluble”. With “MAHHHHHHMDEKPRLIEHTSACRGTADVLILSGFPWYVTEGQVRKYLTEIHPSNIAPLTVRLYTNPANGSSRGICFVEYCPKQSNTGGASQGIKNEFPERKQKGEAEDIAALMKLRIEATAYERHYIRVLLYRLTNRNWDRGGRLPDLPTDPPPLATSRGGVLEGYGDEGFTVRCSALLGLANTVTPNGIASMQTLRKRFREEAAKAAMPNKSDEGYPGSSAARQ” the “soluble on expression in E. coli” value was “not soluble”. For “MAHHHHHHMDGEAAAPTGGAGPKYIVEHLDELEEWSILEYIHICETVKDQNVIFTKFDRPFGEVSEEHNPTCYKQPISELKDKFEWKKICLLDMKATSTLTCSDREHLDYLLFGGILGNVPSDDRTSILRKCQFVISRNLGDMQMTTNTAVLVCHIILDKHVEFKDIPFVDSPEIPLRNEKETMVLPFRFVSKSFFTGMEGDRNVPVLPRNFTEYLIGLGDQRVGDLDEFLSGVVV”, the “soluble on expression in E. coli” value was “soluble”. With “MAHHHHHHMDGGVVKTILRKGEGGEENAPKKGNEVTVHYVGKLESSGKVFDSSRERNVPFKFHLGQGEVIKGWDICVASMTKNEKCSVRLDSKYGYGEEGCGESIPGNSVLIFEIELISFREAKKSIYDYTNEEKIQAAFDLKEEGNDFFKKNEIDEAISKYKEALDLFIHAEDWDGDLAEKKKNIEIICNLNLSTCYNKSKDFPNAIAHASKVLKIEKNNVKALYKLGVANMHFGFLEVAKENLYKAASLSPNNVEIRNSYDACLSKLKEARKRDKLTFGGMFDKGI” the “soluble on expression in E. coli” value was “not soluble”. For “MAHHHHHHMDMNFGFCNDAFFEQGNRSTDKEDIEELKKGESNEITKKGNNELGEEKELPKELCVPVTIKLLLSKMMSHEEFKIHDFQISGIIVFGKVCRIKELASAIIFEICDYTGNIEAKYNKDAKNEKVKDHIEGIKVNDHIKVVGVVYSPESKTEQIQISISYINKVEDWVSYFSYFTSDVIYCYLKLLKLKNIYTPNGVNNEDKPWSHVTLDTYYNQLDDIDTDIIKYLHTTSEKYANQQDIFEHLKKYHSEMNIKKSLTKLIEQYDLAQYEDIISIP”, the “soluble on expression in E. coli” value was “not soluble”. For “MAHHHHHHMDNSHFSKMLKECKIIGKSFTSTDADLLFSKVKAKEARKISFTEFKEKAIPEIAAKMKKTPADIEAMIANAAPKSSGTKADTVRFHDDKSTYTGAAKQGGPTNVDRNAGSLAGVVDRRQETINNRGFTA”, the “soluble on expression in E. coli” value was “soluble”. With “MAHHHHHHMDSGTKREFGRNVTNVDDFKGAKLTPSKIHHQKFEGSDKRHGVRLADEGKWCIHKRSRVEPVAAGPSRERSVEETKSTTTCCSLPLPSQETNLCSIRGDSNTCSSDDSSIERYFDESCEAIEAPTAPAPRPPSPTWNNALRTVSGTAAAVLQDLKNAASLQTDQSSSSEVLPSPPVIPLIL” the “soluble on expression in E. coli” value was “not soluble”. For “MAHHHHHHMEGFPLGLAVIIDPPREKESGAMVEAHAARDNGSAAGSLSNGETNTADTGGDAYSGHSINNREQVPIALHNVCPTRFLWSRYEENGGMLLHMPRSKVCREHRKGLCRFGNECSFLHVCRQMPIGSGDEELLSHSRTPLRHSTVQGSMQDFSHPPSFATASGSLCHHAHSQSYSQANLQHFQGSTVMSQNGSYMDGSLGNSQTGSRPHLSRAPTASESYGGHQPLLRPLGGVQNSHSSVAARGSFSHNPYAEASSFQS”, the “soluble on expression in E. coli” value was “not soluble”. In the case of “MAHHHHHHMEHQYFFIEATWLEAAAAGICSRNGIILKDAIAKAEKGIPVQIKNDSAPTMRSLIQTTHASLEQACERYLHQNARNLRLTRASKPTPAVEALNEAERASCRELVVRIAITGALTQYQRCTRKCILQDSSSLSPSLSHPAVSASKTVQGNGVTDKQLERSFQTTLLKGLLYAFESFQECHSMNRDHYPPRVDSNTPGTVGWDTLVLLYLVHRIPQVARHASGSAIDDCIGQVIRTWRKLLVALQSVDAQEAPEHSRRRGALSLVNGLLIILFQRYNTHQCAVLLGAVEHAETVAESSKEPARSILHPSRHMVSEVVTYHYYQGRMRLYERKLDEAHRILRIAYTLLPPAGFGNEPQRLNKERVRFFLSVAGVANGRRIPDEILRADEDLLPRLFGSLTAAIERGDPVCFSAALDSHASTFHRRGVYLILQQAKILCYLMVVARVHAAMAALSDVDNSRITIPTLLAAYTYITSEKPQSGKSSAESKKRSRDDEAVSPVSEARMAESVMDEDRMALWIAKLIARGYVRGYYSHEHKTLVLSKKVPFPLLQEEV”, the “soluble on expression in E. coli” value is reported as “not soluble”. With “MAHHHHHHMERMSLAVVRQLDADHERGGIWYLSGHRDHVLSIAASSHGVFATCDAKGLGLLWKHDTSHSNSDPSHVSRISSEGPAIVAACFPSSTRLCTAQGNGRVGVWDIEASTEVQSLSRLPSRGKSVNWPVINALSAWESDLVAYGGDDGYLVLSSLAVRNPVVSVNLRVPITSVAAAATSLLVGDVLGNIRCFDTRTFKSLYCFQGHRGVVTSVSVKEDASLAVSYGMDDSLALWNALPFSLTTEDRLIHRGEFHQGDTKTLLRCDWATSGAALVPVSDGRVVYLSAPTLDGIRTILPGRHRREPAQCAAFIGDGYAVSSAETEVILQRI” the “soluble on expression in E. coli” value was “not soluble”. In the case of “MAHHHHHHMERRSEWVASLRSTLPQFSKRSAAPLERGNAAAILGPAPRRTLDKALSSHNTTSSLLLPSEWCEQATQRLITTLHGIVPPLQVQQTDYFLCSLIHPSYVQASTMRCESEALRRRVQQELRRTVCMPLELTMTGSKSLRLLRELTHYVEQGAAAAATSARARATLPAAPVAGRSEARDPSYGPSSWSSYPLDASWPELHSADSTAFVQAFQRAGLDSLVLYDKSFFAASSTLTDNISGAGSAEVSLAAFTALCGSIELVSGWCSLLQFVDRVASEQRGLERNTDGHE”, the “soluble on expression in E. coli” value is reported as “not soluble”. With “MAHHHHHHMESAIGLSVPLYQPHAPAPGAVIDPDMVEDHVSFLRTVRAFHDYKRQALAAREMRCTNFRKLQDQHRHLLCIDLDKILEKYLECIKVNSAFFDAICEASEELFDSYWPEGTTVFMKEVPPPTPLDMNKVFSTLRQFVRDWSAEGVAERDCVYKPILDTLDRCFPNRSERENVRVLIPGAGLCRLSVELALHGFFAQANEFSYHMLIAGHYIQNHVFESCQHKIYPYSDSTCNLVNRADQFAEVQIPDLCASEAIDALRDKGLSFGQLSMVAGDFTEVYAKPHQHKTWSVVATCFFIDTAHNIIEYLVIIYNLLVPGGYWVNVGPLLYHFADSADDMSIELSLGEVLTVAQRIGFVLNGPPSFIDTTYTNNQRSMKQLVYRCAFFVLQRPLADRQTEQMDRNVEAKVT” the “soluble on expression in E. coli” value was “not soluble”. In the case of “MAHHHHHHMETENVPLENEENQNENYEQEENTLAQEAEIVLITTSLGGIKSSFFSSLRAHQLLNCKKYIYFSIDANRDTSSAKNLKDIELFNKWKKGMILLSNENGIVLPQILIDGVPLGNDVTLQNLEDEGILDYIIARLKCPNCLIDKSNIEERCPGCKKYYVTLITDDLIQNDSVIRILQGEPYKEPENE”, the “soluble on expression in E. coli” value is reported as “soluble”. For “MAHHHHHHMEWVELHDVDPETMSLELPPDMLFGPLEFPKQMRFLLAALRADNELADGYLARVIIDRMDLSLDPPILSEGDFLAAGGKELLDFSVEDFTGTKSRAQRKHIFFQPDQFLQFINIIAAYPTLTEYFVNEKDGVELVFQAYRHSKNPYACVMAMRSLTLFSFTQAVDGTVERRILQSNGVKTIVDAYKQSTGDPTETRFPTLLLSSIMRHYPKEGGKEFIDADGVEAVVNNLNIARYKGIPQHIRVLHDAQRLPKQSIGKKSVDARLEEADFLGVAMGLLDTFPEFYEATGDLLKLLTRVVPAHADPLELLEYRAMPILSKYYVRWREDQSFQTDGTRTLVAKLFELMLNDKTCQRCYDPSVASYELLECLRTAKLAVKDEQEKRVMRFPDPQRQPASAAA”, the “soluble on expression in E. coli” value was “soluble”. With “MAHHHHHHMEYAQKSARLPRSAEEKEQWKRVIVILEHCPLQTIQTDRGFELLSDRHRSYHARHNQDPADWRPDVVHQCLLHLQDSPLNRAGMLEVFLRTKKQVCIAVDPRLRVPRNVRLFEKMMVSLLFKLKVRASTGYLSLLRVVGNPITDHIPAGTRLYRVEKDGDLIDPFTFCASCGYAADVLDAQRTDRKISLARRRLTSSTSGTLEETTAEAGTEEFAKAQRKAAERRQFQPFAFIIGGMSRGDVSVDYARPGEVSSIRLGDRGMSAAAVISTLLHGFEEEWLREDNEAC” the “soluble on expression in E. coli” value was “soluble”. In the case of “MAHHHHHHMFPQGLIDQWLSKSREGRRSVREDRKATPAILDNIARLEEYCRSHPYDVFCASTLQHPPFALHALESEAAEQQRLAQPPPVFAATVPSPSAHTTASNEVRGGVCGRYADGDESRASVTAARQHLHNVAARLAAYLQSSGAVRSSASRHEEESQCTVVADFFVHLLSEAAVAAVYRQGIAAQVEAEERAAFQHRQSQRRLQLRVDSKHDGTLQRLELSDSKGADTEAVHEVEGLTVVRPIADYRRLSQGLASLWSLLAQTQRRGGLAVGGPSKERSRDSTADTDSVNDNDNLWTRVRVDCLRHWLGDRALPPPPPLPGTAALGETQRKTEASSPAMPGGAWWSRPLYISERDVEFALRKVLADVTASAAS”, the “soluble on expression in E. coli” value is reported as “soluble”. In the case of “MAHHHHHHMGGPPRKREREGEALKPKSKEEQLPIKNECTLDRREGKQIVAEKWSEVVVDDNESQERSNESVSESQVYDTEEELLAAGEDLSGDALKDFLRKNFVDFIDEKVARVGDLDLMN”, the “soluble on expression in E. coli” value is reported as “not soluble”. With “MAHHHHHHMGKLCWLQISIGGKPAKEKILLELFDDITPKTCANFRALCTGNEGKVTDETQIPMTYKGSTFHRIIAGFMIQGGDFTKHNGTGGVSIYGERFDDENFDVPCDKAGLLAMANAGPNTNGSQFFITVNPAQHLTGRHVVFGKVVRGMNTVRALEHTETGANDKPVKPCVIVDCGVTDTLPEPEPQVGGDTFPDYPEDCTPSLTDAELLDVGEEIRQIGNKLFKASDFENAIQKYEKAARFVKTINKTTANDVAVNEKLIACYNNTAACAIKLGQWSEARNAASRVLELDNSNAKALFRRGFASLSAGDSESAVADFTKAQKLDPDNTEIVTVLQQAKEAEKVRTAKLAAGLKKMFS” the “soluble on expression in E. coli” value was “not soluble”. For “MAHHHHHHMGTLEAQTQGPGSMSSSIEIFPDSDILVAAAGKRLVGAIGAAVAARGQALIVLTGGGNGIALLRYLSAQAQQIEWSKVHLFWGDERYVPEDDDERNLKQARRALLNHVDIPSNQVHPMAASDGDFGGDLDAAALAYEQVLAASAAPGDPAPNFDVHLLGMGPEGHINSLFPHSPAVLESTRMVVAVDDSPKPPPRRITLTLPAIQRSREVWLLVSGPGKADAVAAAIGGADPVSVPAAGAVGRQNTLWLLDRDAAAKLPS”, the “soluble on expression in E. coli” value was “soluble”. For “MAHHHHHHMHLIYLKILFFSLLLDTFISSHTNIPRINNVTPKNVAINISPVVPIPDVITLDYIKENLEQIRLIKDIIIKGKLKKLKVLKQKCKKNKKDKEIKNEIENLEREIMDTRKLCNNYIKNEIKEIKSLKDQIVKDKIEKDRWKKDLLIDYELKRLMYKPDIERLKQLNEEYKKEELRVAKLKDNMFKIYQFILYLIPNTIYYTIEFINNIPEVELSLPKFLKKKKKKKVNHFSHYGVPYMK”, the “soluble on expression in E. coli” value was “soluble”.
